Laboratory results: patent US20150080549A1 (Chugai, published 2015)
Starred links: 1 amine or outer side, 2 acyl side, 3 side chain; linkers in the order of their positions; H or OH if unused. Positions of bridges follow the written chain, without caps; N, C: chain ends. Non-standard residues stand in square brackets, D forms with d. Hyp(Et) = (2S,4R)-4-ethoxypyrrolidine-2-carboxylic acid, CCO[C@@H]1C[C@@H](C(=O)[*:2])N([*:1])C1; γEtAbu = 4-(ethylamino)butanoic acid, CCN(CCCC(=O)[*:2])[*:1]; Phe(4-CF3) = N[C@@H](Cc1ccc(C(F)(F)F)cc1)C(=O)O; NMeAla(4-thiazolyl) = CN[C@@H](Cc1cscn1)C(=O)O; NMePhe(3-Cl) = CN[C@@H](Cc1cccc(Cl)c1)C(=O)O; Met(O2) = CS(=O)(=O)CC[C@H](N)C(=O)O; NMeF = CN[C@@H](Cc1ccccc1)C(=O)O; FlPu(urea) = not defined here; Phg = N[C@H](C(=O)O)c1ccccc1; NMeS = CN[C@@H](CO)C(=O)O; βAla = NCCC(=O)O; Sar = CNCC(=O)O

T1: biotinylated Interleukin-6 receptor (IL-6R) (human, UniProt P08887 20-344, limits assumed, biotinylated (method of BMC biotechnology, 2008, 8, 41 and Protein Science, 1999, 8, 921-929); site not stated)
T1 construct: also called human IL-6 receptor; hIL-6R
T1 sequence (looked up): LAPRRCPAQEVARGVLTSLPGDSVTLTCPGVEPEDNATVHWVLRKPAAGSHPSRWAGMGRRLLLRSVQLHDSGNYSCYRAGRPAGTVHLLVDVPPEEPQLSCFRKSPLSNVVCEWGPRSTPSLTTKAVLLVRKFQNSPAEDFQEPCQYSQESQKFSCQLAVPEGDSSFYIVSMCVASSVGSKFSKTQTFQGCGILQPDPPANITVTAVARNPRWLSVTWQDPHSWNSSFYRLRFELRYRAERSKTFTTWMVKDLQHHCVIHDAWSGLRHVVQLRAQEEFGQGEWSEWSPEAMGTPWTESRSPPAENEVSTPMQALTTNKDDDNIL

B1: Compound SP848 (peptide)
peptide: ATWI[NMeF][Phg]W[βAla][Phe(4-CF3)][Phg]DVTS-OH
modifications: lactam N-11
SMILES: CC[C@H](C)[C@@H]1NC(=O)[C@H](Cc2c[nH]c3ccccc23)NC(=O)[C@H]([C@@H](C)O)NC(=O)[C@H](C)NC(=O)C[C@@H](C(=O)N[C@H](C(=O)N[C@H](C(=O)N[C@@H](CO)C(=O)O)[C@@H](C)O)C(C)C)NC(=O)[C@H](c2ccccc2)NC(=O)[C@H](Cc2ccc(C(F)(F)F)cc2)NC(=O)CCNC(=O)[C@H](Cc2c[nH]c3ccccc23)NC(=O)[C@H](c2ccccc2)NC(=O)[C@H](Cc2ccccc2)N(C)C1=O
notes: Chemically synthesized, HPLC purified
B2: Compound SP845 (peptide)
peptide: A[NMeAla(4-thiazolyl)]IPVWW[Phe(4-CF3)][Met(O2)]VDW[NMeAla(4-thiazolyl)]S-OH
modifications: lactam N-11
SMILES: CC[C@H](C)[C@@H]1NC(=O)[C@H](Cc2cscn2)N(C)C(=O)[C@H](C)NC(=O)C[C@@H](C(=O)N[C@@H](Cc2c[nH]c3ccccc23)C(=O)N(C)[C@@H](Cc2cscn2)C(=O)N[C@@H](CO)C(=O)O)NC(=O)[C@H](C(C)C)NC(=O)[C@H](CCS(C)(=O)=O)NC(=O)[C@H](Cc2ccc(C(F)(F)F)cc2)NC(=O)[C@H](Cc2c[nH]c3ccccc23)NC(=O)[C@H](Cc2c[nH]c3ccccc23)NC(=O)[C@H](C(C)C)NC(=O)[C@@H]2CCCN2C1=O
notes: as for B1
B3: Compound SP846 (peptide)
peptide: ATIP[dY]WW[Phe(4-CF3)][Met(O2)]VDW[NMeAla(4-thiazolyl)]S-OH
modifications: lactam N-11
SMILES: CC[C@H](C)[C@@H]1NC(=O)[C@H]([C@@H](C)O)NC(=O)[C@H](C)NC(=O)C[C@@H](C(=O)N[C@@H](Cc2c[nH]c3ccccc23)C(=O)N(C)[C@@H](Cc2cscn2)C(=O)N[C@@H](CO)C(=O)O)NC(=O)[C@H](C(C)C)NC(=O)[C@H](CCS(C)(=O)=O)NC(=O)[C@H](Cc2ccc(C(F)(F)F)cc2)NC(=O)[C@H](Cc2c[nH]c3ccccc23)NC(=O)[C@H](Cc2c[nH]c3ccccc23)NC(=O)[C@@H](Cc2ccc(O)cc2)NC(=O)[C@@H]2CCCN2C1=O
notes: as for B1
B4: Compound SP842 (peptide)
peptide: [γEtAbu]T[Phg]I[NMeAla(4-thiazolyl)]WW[Phe(4-CF3)][dY][NMePhe(3-Cl)]DP[Sar]S-OH
modifications: lactam N-11
SMILES: CC[C@H](C)[C@@H]1NC(=O)[C@H](c2ccccc2)NC(=O)[C@H]([C@@H](C)O)NC(=O)CCCN(CC)C(=O)C[C@@H](C(=O)N2CCC[C@H]2C(=O)N(C)CC(=O)N[C@@H](CO)C(=O)O)NC(=O)[C@H](Cc2cccc(Cl)c2)N(C)C(=O)[C@@H](Cc2ccc(O)cc2)NC(=O)[C@H](Cc2ccc(C(F)(F)F)cc2)NC(=O)[C@H](Cc2c[nH]c3ccccc23)NC(=O)[C@H](Cc2c[nH]c3ccccc23)NC(=O)[C@H](Cc2cscn2)N(C)C1=O
notes: as for B1
B5: Compound SP844 (peptide)
peptide: A[Phe(4-CF3)]WWV[Sar]GP[Hyp(Et)]SD[NMeS][Met(O2)]S-OH
modifications: lactam N-11
SMILES: CCO[C@@H]1C[C@H]2C(=O)N[C@@H](CO)C(=O)N[C@H](C(=O)N(C)[C@@H](CO)C(=O)N[C@@H](CCS(C)(=O)=O)C(=O)N[C@@H](CO)C(=O)O)CC(=O)N[C@@H](C)C(=O)N[C@@H](Cc3ccc(C(F)(F)F)cc3)C(=O)N[C@@H](Cc3c[nH]c4ccccc34)C(=O)N[C@@H](Cc3c[nH]c4ccccc34)C(=O)N[C@@H](C(C)C)C(=O)N(C)CC(=O)NCC(=O)N3CCC[C@H]3C(=O)N2C1
notes: as for B1
B6: SEQ ID NO: PE-14 (IL-6R binder) peptide (peptide)
peptide: AII[NMeAla(4-thiazolyl)]WP[NMePhe(3-Cl)][Met(O2)][dY][βAla]DP[NMePhe(3-Cl)]SGSGSGS-{FlPu(urea)}
modifications: lactam N-11; reading uncertain
notes: Translated in ECL Translation Solution T, cyclized and desulfurized; not isolated; also called translation product of template DNA DME-14
B7: SEQ ID NO: PE-13 (IL-6R binder) peptide (peptide)
peptide: APVI[NMeF][Met(O2)]P[NMePhe(3-Cl)]V[Met(O2)]DP[Sar]SGSGSGS-{FlPu(urea)}
modifications: lactam N-11; reading uncertain
notes: Translated in ECL Translation Solution T, cyclized and desulfurized; not isolated; also called translation product of template DNA DME-13
B8: SEQ ID NO: PE-2 (IL-6R binder) peptide (peptide)
peptide: APII[NMeF][Met(O2)]P[NMePhe(3-Cl)][dY]VDSTSGSGSGS-{FlPu(urea)}
modifications: lactam N-11; reading uncertain
notes: Translated in ECL Translation Solution T, cyclized and desulfurized; not isolated; also called translation product of template DNA DME-2
B9: SEQ ID NO: PE-3 (IL-6R binder) peptide (peptide)
peptide: APIIW[NMePhe(3-Cl)][Met(O2)]P[NMePhe(3-Cl)][dY]DV[dY]SGSGSGS-{FlPu(urea)}
modifications: lactam N-11; reading uncertain
notes: Translated in ECL Translation Solution T, cyclized and desulfurized; not isolated; also called translation product of template DNA DME-3
B10: SEQ ID NO: PE-10 (TNFα binder) peptide (peptide)
peptide: ATIP[dY]WW[Phe(4-CF3)][Met(O2)]VDW[NMeAla(4-thiazolyl)]SGSGSGS-{FlPu(urea)}
modifications: lactam N-11; reading uncertain
notes: Translated in ECL Translation Solution T, cyclized and desulfurized; not isolated; also called translation product of template DNA DME-10
B11: SEQ ID NO: PE-8 (TNFα binder) peptide (peptide)
peptide: A[Phe(4-CF3)]WWV[Sar]GP[Hyp(Et)]SD[NMeS][Met(O2)]SGSGSGS-{FlPu(urea)}
modifications: lactam N-11; reading uncertain
notes: Translated in ECL Translation Solution T, cyclized and desulfurized; not isolated; also called translation product of template DNA DME-8
B12: SEQ ID NO: PE-11 (TNFα binder) peptide (peptide)
peptide: ATWI[NMeF][Phg]W[βAla][Phe(4-CF3)][Phg]DVTSGSGSGS-{FlPu(urea)}
modifications: lactam N-11; reading uncertain
notes: Translated in ECL Translation Solution T, cyclized and desulfurized; not isolated; also called translation product of template DNA DME-11
B13: SEQ ID NO: PE-9 (TNFα binder) peptide (peptide)
peptide: A[NMeAla(4-thiazolyl)]IPVWW[Phe(4-CF3)][Met(O2)]VDW[NMeAla(4-thiazolyl)]SGSGSGS-{FlPu(urea)}
modifications: lactam N-11; reading uncertain
notes: Translated in ECL Translation Solution T, cyclized and desulfurized; not isolated; also called translation product of template DNA DME-9

Target: T2, biotinylated Recombinant Human Tumor Necrosis Factor-alpha (Prospec, Catalog Number #CYT-223) (human, UniProt P01375 77-233, biotinylated with EZ-Link NHS-PEG4-Biotin (Thermo scientific 21329); sites not stated)
T2 construct: Bought protein; also called TNFα; tumor necrosis factor-α
T2 sequence (P01375 77-233 limits assumed): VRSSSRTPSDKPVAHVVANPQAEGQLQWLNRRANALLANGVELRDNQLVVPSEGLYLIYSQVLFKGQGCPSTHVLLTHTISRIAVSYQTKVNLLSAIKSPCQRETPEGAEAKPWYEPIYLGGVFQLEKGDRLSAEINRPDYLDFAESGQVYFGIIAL
Test: SPR, Biacore T200, 20 C; biotinylated TNFα captured on sensor chip CAP, peptide as analyte; KD=koff/kon from curve fitting
Procedure: An SPR experiment for analyzing the interaction between synthetic peptides and TNFα was conducted using Biacore T200 (GE healthcare) at 20° C. Synthetic peptides were added to the immobilized protein, and the interaction was evaluated.
Surfactant P-20 and DMSO were added to the above phosphate buffered saline at final concentrations of 0.01 vol % and 5 vol %, respectively, and the resulting mixture was used as running buffer. CAP reagent was immobilized on a Biacore sensor chip, Series S sensor chip CAP (GE healthcare), according to the instructions, and biotinylated TNFα was immobilized. Each synthetic peptide was added at multiple concentrations, and sensorgrams for binding to the immobilized TNFα were provided to measure dissociation constants (KD).
The obtained sensorgrams were analyzed using T200 evaluation software (GE healthcare) or Scrubber2 (Biologic software). First, solvent correction for DMSO and double reference (correction by subtracting sensorgrams of flow cells where TNFα was not immobilized and sensorgrams in the case where the buffer was added) were carried out. Second, binding rate constants (kₒₙ) and dissociation rate constants (koff) were calculated from curve fitting to the corrected sensorgrams, and KDs were determined by the relational expression KD=koff/kₒₙ.

Binder | Kd
B1 | 250 nM
B2 | 940 nM
B3 | 2000 nM
B4 | 160 nM
B5 | 20 nM

Target: T1, biotinylated Interleukin-6 receptor …
Test: ECL immunoassay (MSD): biotinylated target on streptavidin plate, translated FlPu(urea)-labelled cyclic peptide (Translation Solution T), anti-fluorescein and SULFO-TAG anti-mouse antibody; no-template control 177
Procedure: (§1) 0.5 μl of a 200 mM EDTA solution (pH 8.0, Nacalai, 14362-24) and 0.5 μl of a 100 mM TCEP solution (pH 6.6) were added to 5 μL of the translation mixture, and the mixture was incubated at 37° C. for 120 minutes to cause cyclization reaction. 11 μL of desulfurization buffer (15 mM cysteine, 36 mM TCEP) was added to the cyclization product, and the mixture was incubated at 42° C. for 1 minutes, after which 4 μL of 1 M VA-044 (Wako, CAS No. 27776-21-2) was added and the mixture was allowed to stand at 42° C. for 1 hour.
(§2) Immunoassay was carried out using the above peptide solution for ECL assay. 500 nM biotinylated target protein was added at 10 μL per well to MSD Streptavidin MULTI-ARRAY 384-well plate (Meso Scale Discovery, L25SB-1), and reaction was conducted at room temperature for 1 hour with shaking at 500 rpm to immobilize the target protein. 2% skim milk PBS was added at 50 μL per well, and blocking was carried out by allowing to stand at room temperature for 2 hours. The reaction solution was removed and the plate was washed with PBS containing 0.05% Tween 20 (PBST) three times, after which 10 μL of the peptide solution for ECL assay was added and the plate was shaken at room temperature for 50 minutes at 500 rpm. The reaction solution was removed and the plate was washed with PBST three times, after which 10 μL of IgG Fraction Monoclonal Mouse Anti-Fluorescein (Jackson ImmunoResearch, 200-002-037) diluted to 0.5 μg/mL with 2% skim milk PBS was added, and reaction was conducted at room temperature for 50 minutes with shaking at 500 rpm. The reaction solution was removed and the plate was washed with PBST three times, after which 10 μL of SULFO-TAG Anti-Mouse Antibody (Meso Scale Discovery, R32AC-5) diluted to 1 μg/mL with 2% skim milk PBS was added, and reaction was conducted at room temperature for 50 minutes with shaking at 500 rpm. The reaction solution was removed and the plate was washed with PBST three times, after which 35 μl, of 2× Read Buffer T (Meso Scale Discovery, R92TC-3) was added and measurement was carried out using SECTOR Imager 2400 (Meso Scale Discovery).

ECL signal | Binder
45600 | B6
537000 | B7
307000 | B8
70000 | B9

Target: T2, biotinylated Recombinant Human Tumor …
Test: ECL immunoassay (MSD): biotinylated target on streptavidin plate, translated FlPu(urea)-labelled cyclic peptide (Translation Solution T), anti-fluorescein and SULFO-TAG anti-mouse antibody; no-template control 232
Procedure: as §1, §2

Binder | ECL signal
B10 | 50700
B11 | 73300
B12 | 149000
B13 | 264000
